Laboratory results: US7662769B2, “Glycosyltransferase GnT-V having neovascularization action” (Suntory Holdings Limited, priority 2002, dated 2010)
*1 amine or outer side, *2 acyl side, *3 side chain or, on linkers, in order; H or OH if unused. Where a SMILES comes first, the peptide text is derived from it. [ ]: non-standard residue; d: D form. The star is where a group is joined. X1 = CC(N[*:1])C(=O)C(F)(F)C(=O)[*:2]; Boc = CC(C)(C)OC(=O)*

B1: GnT-VΔ436: GnT-V lacking variant, amino acid sequence from Ile437 to Leu741 of human GnT-V with C-terminal polyhistidine tag (protein, UniProt Q09328 437-741, looked up, fragment)
chain: IHHINEIKRQNQSLVYGKVDSFWKNKKIYLDIIHTYMEVHATVYGSSTKNIPSYVKNHGILSGRDLQFLLRETKLFVGLGFPYEGPAPLEAIANGCAFLNPKFNPPKSSKNTDFFIGKPTLRELTSQHPYAEVFIGRPHVWTVDLNNQEEVEDAVKAILNQKIEPYMPYEFTCEGMLQRINAFIEKQDFCHGQVMWPPLSALQVKLAEPGQSCKQVCQESQLICEPSFFQHLNKDKDMLKYKVTCQSSELAKDILVPSFDPKNKHCVFQGDLLLFSCAGAHPRHQRVCPCRDFIKGQVALCKDCL
modifications: C-terminal His tag
B2: GnT-VΔ233: GnT-V lacking variant, amino acid sequence from Glu234 to Leu741 of human GnT-V with C-terminal polyhistidine tag (protein, UniProt Q09328 234-741, looked up, fragment)
chain: EFRWMRLRIRRMADAWIQAIKSLAEKQNLEKRKRKKVLVHLGLLTKESGFKIAETAFSGGPLGELVQWSDLITSLYLLGHDIRISASLAELKEIMKKVVGNRSGCPTVGDRIVELIYIDIVGLAQFKKTLGPSWVHYQCMLRVLDSFGTEPEFNHANYAQSKGHKTPWGKWNLNPQQFYTMFPHTPDNSFLGFVVEQHLNSSDIHHINEIKRQNQSLVYGKVDSFWKNKKIYLDIIHTYMEVHATVYGSSTKNIPSYVKNHGILSGRDLQFLLRETKLFVGLGFPYEGPAPLEAIANGCAFLNPKFNPPKSSKNTDFFIGKPTLRELTSQHPYAEVFIGRPHVWTVDLNNQEEVEDAVKAILNQKIEPYMPYEFTCEGMLQRINAFIEKQDFCHGQVMWPPLSALQVKLAEPGQSCKQVCQESQLICEPSFFQHLNKDKDMLKYKVTCQSSELAKDILVPSFDPKNKHCVFQGDLLLFSCAGAHPRHQRVCPCRDFIKGQVALCKDCL
modifications: C-terminal His tag
B3: GnT-V: secretory type glycosyltransferase N-acetylglucosaminyltransferase V (protein, UniProt Q09328 1-741, looked up)
Alpha-1,6-mannosylglycoprotein …: MALFTPWKLSSQKLGFFLVTFGFIWGMMLLHFTIQQRTQPESSSMLREQILDLSKRYIKALAEENRNVVDGPYAGVMTAYDLKKTLAVLLDNILQRIGKLESKVDNLVVNGTGTNSTNSTTAVPSLVALEKINVADIINGAQEKCVLPPMDGYPHCEGKIKWMKDMWRSDPCYADYGVDGSTCSFFIYLSEVENWCPHLPWRAKNPYEEADHNSLAEIRTDFNILYSMMKKHEEFRWMRLRIRRMADAWIQAIKSLAEKQNLEKRKRKKVLVHLGLLTKESGFKIAETAFSGGPLGELVQWSDLITSLYLLGHDIRISASLAELKEIMKKVVGNRSGCPTVGDRIVELIYIDIVGLAQFKKTLGPSWVHYQCMLRVLDSFGTEPEFNHANYAQSKGHKTPWGKWNLNPQQFYTMFPHTPDNSFLGFVVEQHLNSSDIHHINEIKRQNQSLVYGKVDSFWKNKKIYLDIIHTYMEVHATVYGSSTKNIPSYVKNHGILSGRDLQFLLRETKLFVGLGFPYEGPAPLEAIANGCAFLNPKFNPPKSSKNTDFFIGKPTLRELTSQHPYAEVFIGRPHVWTVDLNNQEEVEDAVKAILNQKIEPYMPYEFTCEGMLQRINAFIEKQDFCHGQVMWPPLSALQVKLAEPGQSCKQVCQESQLICEPSFFQHLNKDKDMLKYKVTCQSSELAKDILVPSFDPKNKHCVFQGDLLLFSCAGAHPRHQRVCPCRDFIKGQVALCKDCL

Experiments:
PaCa-2/GnT-V cell = assay: GnT-V activity in culture solution (production of secretory type GnT-V), PaCa-2/GnT-V cell; assay type: cell-based; settings: 100 μM in DMSO, FIG. 10A
KB/GnT-V cell = assay: GnT-V activity in culture solution (production of secretory type GnT-V), KB/GnT-V cell; assay type: cell-based; settings: 100 μM in DMSO, FIG. 10B
HSPG on HUVEC = assay: release of FGF-2 from HSPG on HUVEC (FGF-2 ELISA of supernatant); assay type: cell-based, human; settings: 4° C., 2 hours; FIG. 5
Text: A basic peptide (KRKRKK peptide) composed of Lys-Arg-Lys-Arg-Lys-Lys (SEQ ID NO: 11) which is an amino acid sequence of from 264 to 269 and a non-basic control peptide (FSGGPL peptide) composed of Phe-Ser-Gly-Gly-Pro-Leu (SEQ ID NO: 12) which is an amino acid sequence of from 291 to 296, of GnT-V, were synthesized, and an influence of these peptides on growth of HUVEC was examined. The peptide was synthesized by a peptide synthesizer A432 (manufactured by Applied Biosystems), and purified by reverse phase HPLC, then, its molecular weight and degree of purification were confirmed by MALDI TOF-MS (Voyager-DE (registered trademark) RP; manufactured by PerSeptive Biosystems). The concentration of FGF-2 was measured by a known method (Barillari, G., et al., American J. Patho. 152, 1161-1166 (1998)). […] After centrifugation at 4° C. and 3000 rpm for 5 minutes, the supernatant was collected, the concentration of FGF-2 in the supernatant was measured in an FGF-2 ELISA system (manufactured by R&D Systems) according to a manual of this system.
As described above, various deficient variants of GnT-V and synthetic peptides were added at 4° C. to culture solution of HUVEC, and the amount of FGF-2 released from HSPG on HUVEC was measured.

HUVEC [1] = assay: HUVEC differentiation and growth, incorporation of [3H]-thymidine (DNA synthesis); assay type: cell-based, human; settings: [3H]-thymidine incorporation; FIG. 2, 3B, 6
Protocol: For in vitro evaluation of induction of neovascularization by a GnT-V transformant, the amount of synthesis of DNA of human umbilical vein […] cells (HUVEC) after stimulation with culture solution of a GnT-V transformant was measured by a method of Soker et al.(Soker, S., et al., J. Biol. Chem. 272, 31582-31588 (1997)). HUVEC was inoculated on a 96-well plate coated with type I collagen at a rate of 2×10^3 cells per well, and 24 hours later, the medium was substituted with an MCDB131 medium (not containing FBS and FGF-2) containing 0.1% […] and a starved condition was maintained for 24 hours. The medium was substituted with culture solution of the WiDr cell transformed with the glycosyltransferase gene described in Example 1, and HUVEC was stimulated for 24 hours. HUVEC was maintained for 8 hours with [^3H]-thymidine (1 μCi/ml), and incorporation of [^3H]-thymidine into HUVEC was analyzed by MicroBeta-Counter (manufactured by Wallac) to measure the amount of synthesis of DNA. The result was shown as the mean value of assay results of 6 wells, and the standard deviation was measured. All experiments were repeated at least three times, and the same results were obtained. As apparent from FIG. 1, DNA synthesis of HUVEC stimulated with the culture solution of WiDr cells transformed with a GnT-V gene increased, however, the same effect was not observed in culture solution of WiDr cells transformed with other glycosyltransferase genes.
Purification of a neovascularization factor present in culture solution of WiDr cells transformed with a GnT-V gene was conducted using various column chromatographies. The neovascularization activity of each fraction was evaluated by differentiation and growth of HUVEC described in Example 3. In heparin affinity chromatography, a fraction of high growth activity of HUVEC was eluted with 0.3 M NaCl. Since known growth factors such as FGF-1, FGF-2, VEGF, placenta-induced growth factor (PIGF) and hepatocyte growth factor (HGF) and the like are eluted with 0.8 to 1.5 M NaCl (Hauser, S. & Weich H. A., Growth Factor 9, 259-268 (1993). Gohda, E., et al., J. Clin. Invest. 81, 414-419 (1998). Marez, A., et al., Biochimie 69, 125-129 (1987). Risau, W., et al., The EMBO J. 7, 959-962 (1988). Rothenthal, R. A., et al., Growth Factor 4, 53-59 (1990)), the above-mentioned nature is utterly different from the natures of these known growth factors. […] A fraction eluted with 0.3 M NaCl in heparin affinity chromatography was subjected to Western blot analysis using an anti-GnT-V antibody to find that the reaction of the anti-GnT-V antibody and the differentiation and growth activity of HUVEC are consistent each other, and the main protein having a differentiation and growth activity of HUVEC present in the fraction is GnT-V itself.

[2] = glycosyltransferase activity of GnT-V deficient variants; assay type: biochemical; settings: recombinant variants from Sf21 cells
Text: For clarifying which domain of GnT-V is involved in HUVEC growth accelerating activity, a GnT-V lacking variant shown in FIG. 3A was produced. The method of production of a GnT-VΔ188 plasmid is disclosed in a literature of Sasai et al (Sasai, K., et al., Glycobiology (in press)). A transfer plasmid having a GnT-VΔ233 gene was produced by binding a DNA fragment of 1521 base pairs encoding polyhistidine tag at the C-terminal and an amino acid sequence of from Glu234 to Leu741 of human GnT-V, obtained by cutting a GnT-VΔ188 plasmid with EcoRI and EagI, to an EcoRI-EagI site of a transfer vector pAcGP67-A (manufactured by PharMingen). A transfer plasmid having a GnT-VΔ436 gene was produced by binding a DNA fragment of 912 base pairs encoding polyhistidine tag at the C terminal and an amino acid sequence of from Ile437 to Leu741, of human GnT-V, obtained by cutting a GnT-VΔ188 plasmid with EcoRV and EagI, to an EcoRV-EagI site of a transfer vector pAcGP67-A. For production of a recombinant Baculovirus, an insect cell Sf21 was transformed with the transfer plasmid obtained above according to a method known in a literature (Ikeda, Y., et al., J. Biochem. 128, 609-619 (2000)). The recombinant glycosyltransferase derived from the transformed Sf21 cell was purified by Ni^2+-chelating affinity chromatography according to a method disclosed in a literature of Sasaki et al (Sasai, K., et al., Glycobiology (in press)).

chicken microvessels = assay: CAM (chorioallantoic membrane) assay of neovascularization; assay type: in vivo; settings: ex-vivo, chicken embryo CAM
Protocol: Acceleration of neovascularization by a GnT-V transformant was confirmed by a CAM (chorioallantoic membrane) assay using an embryo of a chicken fertilized egg. The CAM assay was conducted by a method of Yen et al. (Yen, L., et al., Oncogene 19, 3460-3469 (2000)) and a method of Bernardini (Bernardini, G., et al., Blood 96, 4039-4045 (2000)), both being slightly modified. CAM 8 days after fertilization of white Leghorn was used, and 1×10^5 cells thereof were inoculated on a collagen sponge and maintained for 4 hours. A 5 mm silicon ring was placed on CAM on the collagen sponge and maintained for 48 hours.
(§1) Induction of neovascularization by GnT-V was confirmed also by other in vitro neovascularization assays such as a capillary-like tube formation assay (Ashoton, A. W., et al., J. Biol. Chem. 274, 35562-35570 (1999)) and a migration assay (Zeng, H., et al., J. Biol. Chem. 276, 3271-3279 (2001)) using HUVEC.

HUVEC [3] = assay: capillary-like tube formation assay using HUVEC; assay type: cell-based, human
Text: as §1

HUVEC [4] = assay: migration assay using HUVEC; assay type: cell-based, human
Text: as §1

Molecule	release of FGF-2 from HSPG on HUVEC (HSPG on HUVEC)	differentiation and growth of HUVEC (HUVEC growth accelerating activity) (HUVEC [1])	glycosyltransferase activity [2]	further results
CCC(C)C(NC(=O)C(NC(=O)OC(C)(C)C)C(C)C)C(=O)NC(C)C(=O)C(F)(F)C(=O)NC(C(=O)NC(C(=O)OC)C(C)CC)C(C)C (centres unmarked) [DFK167] (Boc-VI[X1]VI-OMe; configuration not given here)	–	–	–	GnT-V activity in culture solution (PaCa-2/GnT-V cell): could not be detected; GnT-V activity in culture solution (KB/GnT-V cell): could not be detected
B1	did not affect release of FGF-2	did not have an HUVEC growth and differentiation accentuation action	had no glycosyltransferase activity	induction of neovascularization in CAM assay (chicken microvessels): did not have a neovascularization activity
B2	released FGF-2	had an HUVEC growth and differentiation accentuation action	had no glycosyltransferase activity	–
B3	–	–	–	induction of neovascularization, capillary-like tube formation (HUVEC [3]): confirmed; induction of neovascularization, migration (HUVEC [4]): confirmed
